One assay has as its target VEGFR2 (Homo sapiens, UniProt P35968). Put plainly: Confocal / structured illumination microscopy of VEGF165a-TMR and VEGFR2 location after RTKI pre-treatment. Further details: full length VEGFR2, tagged with the bioluminescent protein NanoLuc; IL-6 signal peptide (N); expressed in transfected cells. Particulars: RTKI 30 min pre-incubation, then 10 nM VEGF165a-TMR 30 min. In kind it is cell-based. As to the method:
On the day of the assay, cells were washed three times with HBSS/0.1% protease free BSA (vehicle). Receptor tyrosine kinase inhibitors were added at this point as aliquots to the appropriate wells and cells incubated for 30 min at 37 °C. Cells were then stimulated with 10 nM VEGF165a-TMR for 30 min at 37 °C in the dark.
All cells were then fixed using 3% PFA/PBS (10 min at room temperature), washed with PBS and mounted onto slides using Prolong Gold antifade reagent (P10144; Thermo Fisher Scientific, USA). TetraSpeck™ microspheres (0.1 μm; T7279, Thermo Fisher Scientific, USA) were included in each experiment to allow X/Y/Z channel alignment correction in image processing. […] Images were manually processed with consistent raw scaling between and within experiments.

In the next assay the target is T1, NLuc-VEGFR2 (Homo sapiens, UniProt P35968).
T1 construct: full length VEGFR2, tagged with the bioluminescent protein NanoLuc; IL-6 signal peptide (N); expressed in transfected cells
Put plainly: NanoBRET ligand binding (saturation/competition) in living HEK293T NLuc-VEGFR2 cells. Particulars: maximal response relative to binding of VEGF165a-TMR alone; RTKI 30 min pre-treatment, 60 min ligand. The method, then:
On the day of the assay, medium was replaced with 50 μl per well HBSS/0.1% protease free BSA. Where appropriate, RTKIs were added 30 min prior to agonist. For competition experiments, a fixed concentration of fluorescent VEGF165a-TMR was added simultaneously with competing unlabeled VEGF isoforms to triplicate wells for the time specified (10, 30 or 60 min) and plates co-incubated at 37 °C in the dark. For saturation experiments a range of concentrations of VEGF165a-TMR were added in the presence or absence of a competing concentration (30 nM) of unlabeled VEGF165a and incubated for 60 min at 37 °C in the dark. The NanoLuc substrate furimazine (N1130; Promega Corporation, USA) was then added at a final concentration of 10 μM. […] For all experiments, sequential recordings were performed at room temperature using a PHERAstar FS plate reader (BMG Labtech, Germany) using 460 nm (80 nm bandpass; donor NanoLuc emission) and >610 nm longpass filters (acceptor emission). Raw BRET ratios were calculated from the ratio of acceptor to donor emission values. For real-time ligand association kinetics experiments, cells were incubated with vehicle for 30 min at 37 °C. Furimazine (10 μM) was then added and plates equilibrated at 37 °C in the PHERAstar FS plate reader for 5 min.
Equilibrium binding: All data were analysed using Prism 6 (GraphPad; San Diego, CA, USA). NanoBRET competition experiments were fitted as raw BRET ratios using non-linear least squares regression (variable slope) with no constraints used. Saturation curves were fitted simultaneously for total (VEGF165a-TMR alone) and non-specific binding (top concentration of competing VEGF165a alone) using both one and two site fits. Background and non-specific binding parameters were shared across all data sets.
Binding affinities (Ki) of the unlabeled ligands were calculated using the Cheng-Prusoff equation: Ki=IC50/1+[L]/KD where [L] is the concentration of fluorescent ligand used (nM). KD values (nM) were derived from saturation binding curves. […]
A general note: BRET reads energy transfer from a luciferase to a nearby fluorophore.

Assay [1] addresses NLuc-VEGFR2 (full length human VEGFR2 with NanoLuc on its N-terminus) (human) (UniProt P35968). Put plainly: FRET or BRET; NanoBRET competition on living HEK293T NLuc-VEGFR2 cells; vehicle 30 min at 37 °C, then VEGF165a-TMR (0.5-3 nM) with unlabeled VEGF165a for 10 min at 37 °C.
Assay [2] shares this target. Put plainly: FRET or BRET; NanoBRET competition on living HEK293T NLuc-VEGFR2 cells; 1 μM cediranib 30 min at 37 °C, then VEGF165a-TMR (0.5-3 nM) with unlabeled VEGF165a for 60 min at 37 °C.
The target is the same in assay [3]. Put plainly: FRET or BRET; NanoBRET competition on living HEK293T NLuc-VEGFR2 cells; vehicle 30 min at 37 °C, then VEGF165a-TMR (0.5-3 nM) with unlabeled VEGF165a for 30 min at 37 °C.
The target is the same in assay [4]. Put plainly: FRET or BRET; NanoBRET competition on living HEK293T NLuc-VEGFR2 cells; 1 μM cediranib 30 min at 37 °C, then VEGF165a-TMR (0.5-3 nM) with unlabeled VEGF165a for 30 min at 37 °C.
The target is the same in assay [5]. Put plainly: FRET or BRET; NanoBRET competition on living HEK293T NLuc-VEGFR2 cells; 1 μM cediranib 30 min at 37 °C, then VEGF165a-TMR (0.5-3 nM) with unlabeled VEGF165a for 10 min at 37 °C.
Assay [6] has the same target. Briefly: FRET or BRET; NanoBRET competition on living HEK293T NLuc-VEGFR2 cells; fixed VEGF165a-TMR (0.1-3 nM) added simultaneously with increasing unlabeled VEGF isoform, 60 min at 37 °C, HBSS/0.1% BSA; IC50 (molar) converted to pKi by Cheng-Prusoff; also linear regression of IC50 against [VEGF165a-TMR]; apparent.
Assay [7] has the same target. Briefly: FRET or BRET; NanoBRET competition on living HEK293T NLuc-VEGFR2 cells; vehicle 30 min at 37 °C, then VEGF165a-TMR (0.5-3 nM) with unlabeled VEGF165a for 60 min at 37 °C.
The target in assay [8] is VEGF165a-TMR (fluorescent VEGF165a labeled with 6-TMR-PEG-CBT on a single N-terminal cysteine of each protomer) (human). Put plainly: fluorescence correlation spectroscopy; solution FCS of VEGF165a-TMR (0.25-10 nM) in HBSS with 0.1% protease-free BSA; also without BSA and with 10 mM DTT (30 min at 37 °C); number of fluorescent particles against the concentration calculated for a dimer.

In assay [9] the target is NLuc-VEGFR2 (full length human VEGFR2 with NanoLuc on its N-terminus) (human) (UniProt P35968). Put plainly: FRET or BRET; NanoBRET saturation on living HEK293T NLuc-VEGFR2 cells, 30 min pre-incubation with 1 μM cediranib (Fig. 6b).
The target is the same in assay [10]. Briefly: FRET or BRET; NanoBRET saturation on living HEK293T NLuc-VEGFR2 cells, without cediranib (Fig. 6b).
For assay [11] the target is unchanged. Briefly: FRET or BRET; NanoBRET real-time association kinetics on living HEK293T NLuc-VEGFR2 cells; VEGF165a-TMR 1-20 nM, read every 30 s for 16 min at 37 °C; kobs against concentration, linear only at the three lowest concentrations.
In assay [12] the target is VEGF165a-TMR (fluorescent VEGF165a labeled with 6-TMR-PEG-CBT on a single N-terminal cysteine of each protomer) (human). Briefly: SDS-PAGE with and without DTT, fluorescence scan; purified VEGF165a-TMR in the presence or absence of 100 mM DTT, scanned on a Typhoon 9400 (Ex 532 nm, Em 580 nm).
The target of assay [13] is NLuc-VEGFR2 (full length human VEGFR2 with NanoLuc on its N-terminus) (human) (UniProt P35968). Briefly: FRET or BRET; NanoBRET saturation on living HEK293T NLuc-VEGFR2 cells; VEGF165a-TMR 0.1-3 nM with or without 30 nM unlabeled VEGF165a (non-specific binding), 60 min at 37 °C, HBSS/0.1% BSA; one site fit; apparent.
Assay [14] concerns the target T2, NLuc-VEGFR2 (full length human VEGFR2 with NanoLuc on its N-terminus) (human, UniProt P35968-1 20-1356).
T2 construct: VEGFR2, human, subcloned from an Origene plasmid (NM_002253); called full length VEGFR2; Open reading frame: IL-6 signal peptide, NanoLuc, Gly-Ser-Ser-Gly(AIA) linker, VEGFR2 (vector pF-sNnK CMV/neo); also called NanoLuc VEGFR2; NanoLuc-tagged VEGFR2; not shown: NanoLuc, N-terminal, kept
Briefly: FRET or BRET; NanoBRET competition on living HEK293T NLuc-VEGFR2 cells; fixed VEGF165a-TMR (0.1-3 nM) added simultaneously with increasing unlabeled VEGF isoform, 60 min at 37 °C, HBSS/0.1% BSA; IC50 (molar) converted to pKi by Cheng-Prusoff; also linear regression of IC50 against [VEGF165a-TMR]; apparent. Particulars: one partner purified.

Several values for one entry are separate records, joined by “and”; a condition that tells them apart may be missing. Equal entries are not always repeated. Entries after “also recorded” stand apart in the source; their conditions may differ.

What is called pKi is the Ki on a negative log10 scale, so that one unit is a factor of ten. In general, stoichiometry N refers to the number of molecules, sites or subunits per partner or assembly. What is called koff is the rate constant with which the complex falls apart. Read a high koff as fast dissociation. Usually kon stands for a measure of how fast the partners come together. Higher therefore signals faster complex formation.

T2 sequence (P35968 20-1356): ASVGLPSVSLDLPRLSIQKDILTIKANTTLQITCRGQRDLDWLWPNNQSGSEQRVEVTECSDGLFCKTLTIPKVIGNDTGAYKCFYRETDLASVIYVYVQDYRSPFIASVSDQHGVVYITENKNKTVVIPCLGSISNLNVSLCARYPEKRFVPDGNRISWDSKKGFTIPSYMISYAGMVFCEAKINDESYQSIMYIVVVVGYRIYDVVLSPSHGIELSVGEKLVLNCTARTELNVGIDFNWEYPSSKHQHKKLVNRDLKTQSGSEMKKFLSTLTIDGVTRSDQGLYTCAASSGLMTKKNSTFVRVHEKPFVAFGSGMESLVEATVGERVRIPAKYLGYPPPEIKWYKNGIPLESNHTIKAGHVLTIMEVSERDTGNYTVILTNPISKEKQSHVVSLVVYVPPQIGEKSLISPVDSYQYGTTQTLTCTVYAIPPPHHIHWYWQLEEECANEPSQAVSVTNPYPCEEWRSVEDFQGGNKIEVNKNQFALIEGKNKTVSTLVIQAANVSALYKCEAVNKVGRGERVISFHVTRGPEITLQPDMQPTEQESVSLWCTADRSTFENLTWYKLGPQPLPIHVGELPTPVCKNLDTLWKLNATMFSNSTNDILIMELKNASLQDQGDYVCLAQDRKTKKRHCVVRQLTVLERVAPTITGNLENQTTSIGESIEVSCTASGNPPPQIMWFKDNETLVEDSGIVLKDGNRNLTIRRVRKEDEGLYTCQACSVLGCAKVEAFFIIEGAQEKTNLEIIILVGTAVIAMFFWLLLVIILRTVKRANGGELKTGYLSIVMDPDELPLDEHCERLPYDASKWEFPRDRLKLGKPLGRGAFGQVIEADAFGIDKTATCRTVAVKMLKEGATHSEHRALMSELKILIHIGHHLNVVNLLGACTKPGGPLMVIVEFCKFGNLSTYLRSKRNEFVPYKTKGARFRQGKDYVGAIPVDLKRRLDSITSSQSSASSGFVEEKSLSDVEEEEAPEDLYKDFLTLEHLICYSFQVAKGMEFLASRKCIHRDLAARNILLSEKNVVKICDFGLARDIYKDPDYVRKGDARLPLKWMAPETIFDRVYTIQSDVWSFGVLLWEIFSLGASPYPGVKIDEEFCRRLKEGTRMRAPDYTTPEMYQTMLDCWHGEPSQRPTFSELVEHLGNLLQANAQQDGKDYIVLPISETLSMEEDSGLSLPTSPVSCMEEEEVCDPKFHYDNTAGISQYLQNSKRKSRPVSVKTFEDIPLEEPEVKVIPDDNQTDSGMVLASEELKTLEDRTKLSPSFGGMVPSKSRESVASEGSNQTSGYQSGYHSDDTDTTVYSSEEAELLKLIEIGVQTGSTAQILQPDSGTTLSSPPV
NLuc-VEGFR2 (full length human VEGFR2 with NanoLuc on its N-terminus) (human), sequence (P35968 20-1356): as above
VEGFR2, sequence (P35968 20-1356): as above
T1 sequence (P35968 20-1356): as above

As to `COc1cc2c(Oc3ccc4[nH]c(C)cc4c3F)ncnc2cc1OCCCN1CCCC1` [Cediranib], the “effect on VEGFR2 internalization by VEGF165a-TMR / cellular location of VEGF165a-TMR” value at VEGFR2 is “prevented; also recorded: largely localised to the cell membrane”. Also, the “NanoBRET % Increase in binding of 10 nM VEGF165a-TMR” value (“NanoBRET % Increase in binding” for short) on NLuc-VEGFR2 was 139.0 ± 4.4% and 139.0 ± 2.0 (4) %.
With `Cc1ccc(Nc2nccc(N(C)c3ccc4c(C)n(C)nc4c3)n2)cc1S(N)(=O)=O` [Pazopanib], on VEGFR2, the “effect on VEGFR2 internalization by VEGF165a-TMR / cellular location of VEGF165a-TMR” value is “prevented”. In addition, the “NanoBRET % Increase in binding” value on NLuc-VEGFR2 was 144.8 ± 3.5 (4) %.
For the molecule `COc1cc2c(Nc3ccc(Br)cc3F)ncnc2cc1OCC1CCN(C)CC1` [Vandetanib], at VEGFR2, the “effect on VEGFR2 internalization by VEGF165a-TMR / cellular location of VEGF165a-TMR” value is on record as “prevented”. Also, the “NanoBRET % Increase in binding” value at NLuc-VEGFR2 is 152.8 ± 7.1 (4) %.
With “VEGF165a (recombinant human, R&D Systems) (ligand)”, the pKi in [1] worked out at 8.93; in assay [2], 9.18; in assay [3], 8.99; in assay [4], 9.23; in [5], 9.17; in [6] it was 9.81. This molecule also came in with a pKi in assay [7] of 9.28. Moreover, the Ki in assay [6] amounted to 0.22 nM.
Consider “VEGF165a-TMR (fluorescent VEGF165a labeled with 6-TMR-PEG-CBT on a single N-terminal cysteine of each protomer) (ligand)”, for which the stoichiometry N in assay [8] and in assay [12] was 2 in each case. For the same molecule, the Kd in assay [9] was determined as 1.18 nM; in assay [10], 1.14 nM; in [6], 0.85 nM; in assay [11] it was 2.27 nM; in assay [13] it was 0.92 nM. This molecule also displayed an off-rate constant (koff) in assay [11] of 0.00183 s⁻¹. Also, in [11], the association rate constant (kon) was 797000 M⁻¹ s⁻¹.

B1: VEGF165b (recombinant human, R&D Systems) (ligand)
chain: APMAEGGGQNHHEVVKFMDVYQRSYCHPIETLVDIFQEYPDEIEYIFKPSCVPLMRCGGCCNDEGLECVPTEESNITMQIMRIKPHQGQHIGEMSFLQHNKCECRPKKDRARQENPCGPCSERRKHLFVQDPQTCKCSCKNTDSRCKARQLELNERTCRSLTRKD
As to B1, the negative logarithm of the Ki (pKi) in assay [14] came to 9.41.

B2: VEGF145a (recombinant human, R&D Systems) (ligand)
chain: APMAEGGGQNHHEVVKFMDVYQRSYCHPIETLVDIFQEYPDEIEYIFKPSCVPLMRCGGCCNDEGLECVPTEESNITMQIMRIKPHQGQHIGEMSFLQHNKCECRPKKDRARQEKKSVRGKGKGQKRKRKKSRYKSWSVCDKPRR
For the molecule B2, the pKi in assay [14] stood at 8.74.

B3: VEGF189a (recombinant human, R&D Systems) (ligand)
chain: APMAEGGGQNHHEVVKFMDVYQRSYCHPIETLVDIFQEYPDEIEYIFKPSCVPLMRCGGCCNDEGLECVPTEESNITMQIMRIKPHQGQHIGEMSFLQHNKCECRPKKDRARQEKKSVRGKGKGQKRKRKKSRYKSWSVPCGPCSERRKHLFVQDPQTCKCSCKNTDSRCKARQLELNERTCRCDKPRR
Take B3: in assay [14], the negative logarithm of the Ki (pKi) was determined as 8.99.

B4: VEGF121a (recombinant human, R&D Systems) (ligand)
chain: APMAEGGGQNHHEVVKFMDVYQRSYCHPIETLVDIFQEYPDEIEYIFKPSCVPLMRCGGCCNDEGLECVPTEESNITMQIMRIKPHQGQHIGEMSFLQHNKCECRPKKDRARQEKCDKPRR
As to B4, the negative logarithm of the Ki (pKi) in assay [14] was 9.47.

Values taken from paper PMC5457915, “Real-time analysis of the binding of fluorescent VEGF165a to VEGFR2 in living cells: Effect of receptor tyrosine kinase inhibitors and fate of internalized agonist-receptor complexes” (Biochemical Pharmacology, 2017).
